From article doi:10.1101/303123 (bioRxiv, 2018)

T1: XcpVW binary complex (XcpV (28-129) with XcpW (28-203)) (P. aeruginosa, UniProt Q00516 28-129; Q00517 28-203)
T1 sequence (looked up) 1: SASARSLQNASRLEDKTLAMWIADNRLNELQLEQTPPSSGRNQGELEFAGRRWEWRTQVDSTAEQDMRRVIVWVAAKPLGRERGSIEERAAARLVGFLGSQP
T1 sequence (looked up) 2: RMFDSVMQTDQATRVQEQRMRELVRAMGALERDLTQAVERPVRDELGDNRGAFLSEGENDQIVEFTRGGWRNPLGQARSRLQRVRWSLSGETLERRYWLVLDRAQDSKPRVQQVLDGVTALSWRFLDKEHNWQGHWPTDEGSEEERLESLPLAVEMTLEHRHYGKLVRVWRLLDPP

T2: XcpX (29-313), soluble form of the minor pseudopilin XcpX (P. aeruginosa, UniProt Q00518 29-313)
T2 sequence (looked up): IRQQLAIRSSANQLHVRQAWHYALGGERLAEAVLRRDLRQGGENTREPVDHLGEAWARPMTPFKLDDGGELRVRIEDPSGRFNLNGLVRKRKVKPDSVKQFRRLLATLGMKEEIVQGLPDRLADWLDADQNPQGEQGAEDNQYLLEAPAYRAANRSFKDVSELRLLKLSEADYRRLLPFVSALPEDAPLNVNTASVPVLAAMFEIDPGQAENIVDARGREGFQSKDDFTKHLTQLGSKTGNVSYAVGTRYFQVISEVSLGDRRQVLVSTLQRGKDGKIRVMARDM

B1: XcpU (29-172), soluble form of the minor pseudopilin XcpU (domain or fragment, P. aeruginosa, UniProt Q00515 29-172, looked up)
chain: STGFASTSRELDSEAERLAGLIGVLTDEAVLDNREYGLRLERDAYQVLRYDEAKARWLPVARDSHRLPEWAELTFELDGQPLVLAGSKGEKEQKKGTDQPQLLILSSGELSPFRLRLAERGPEGRALSLSSDGFRLPRVEVARR
B2: XcpV (28-129), soluble form of the minor pseudopilin XcpV (domain or fragment, P. aeruginosa, UniProt Q00516 28-129, looked up)
chain: T1 sequence (looked up) 1

Assays:
[1] = target: T1, XcpVW binary complex (XcpV (28-129) …); assay: SEC + AUC
[2] = target: T2, XcpX (29-313), soluble form of the …; assay: crystal structure

Binder | binding result [1] | binding result [2]
B1 | binds | 
B2 |  | binds
